The experiment concerns the target human rhinovirus serotype HRV-39. The experiment can be described thus: cell-based or functional assay.

Regarding “IC1-5D/IgA (ICAM/IgA fusion, gift of Dr. Tim Springer; Martin, et al., 1993) (Fc fusion)”, the IC50, CPE assay was determined as 0.12 µg/mL and the fold lower IC50 than soluble ICAM-1, CPE assay amounted to 11.3 fold.
In turn, “soluble ICAM-1 (from UniProt P05362 28-480) (receptor)” showed an IC50, CPE assay of 1.35 µg/mL.

The values above are taken from EP1922329B1.
